From article PMC6107515 come the findings set out here.

By Kd is commonly meant the constant that tells how readily two partners part at equilibrium. As a reminder, the koff is the first-order rate constant of dissociation. Usually kon stands for a measure of how fast the partners come together.

Like-named read-outs stand apart in the source and are kept apart here.

Test [1] has as its target human complement Factor H (human) (UniProt P08603). Description: SPR; Biacore X100; FH coupled to a CM4 chip, recombinant PspCs injected at five increasing concentrations (kinetic titration); PBS-P+ buffer; fitted with a 1:1 binding model. In general terms: Surface plasmon resonance follows binding to a sensor surface in real time, without labels.
Test [2] shares this target. The description is as above. This is another data set of the same source.

human complement Factor H (human), sequence (P08603 19-1231): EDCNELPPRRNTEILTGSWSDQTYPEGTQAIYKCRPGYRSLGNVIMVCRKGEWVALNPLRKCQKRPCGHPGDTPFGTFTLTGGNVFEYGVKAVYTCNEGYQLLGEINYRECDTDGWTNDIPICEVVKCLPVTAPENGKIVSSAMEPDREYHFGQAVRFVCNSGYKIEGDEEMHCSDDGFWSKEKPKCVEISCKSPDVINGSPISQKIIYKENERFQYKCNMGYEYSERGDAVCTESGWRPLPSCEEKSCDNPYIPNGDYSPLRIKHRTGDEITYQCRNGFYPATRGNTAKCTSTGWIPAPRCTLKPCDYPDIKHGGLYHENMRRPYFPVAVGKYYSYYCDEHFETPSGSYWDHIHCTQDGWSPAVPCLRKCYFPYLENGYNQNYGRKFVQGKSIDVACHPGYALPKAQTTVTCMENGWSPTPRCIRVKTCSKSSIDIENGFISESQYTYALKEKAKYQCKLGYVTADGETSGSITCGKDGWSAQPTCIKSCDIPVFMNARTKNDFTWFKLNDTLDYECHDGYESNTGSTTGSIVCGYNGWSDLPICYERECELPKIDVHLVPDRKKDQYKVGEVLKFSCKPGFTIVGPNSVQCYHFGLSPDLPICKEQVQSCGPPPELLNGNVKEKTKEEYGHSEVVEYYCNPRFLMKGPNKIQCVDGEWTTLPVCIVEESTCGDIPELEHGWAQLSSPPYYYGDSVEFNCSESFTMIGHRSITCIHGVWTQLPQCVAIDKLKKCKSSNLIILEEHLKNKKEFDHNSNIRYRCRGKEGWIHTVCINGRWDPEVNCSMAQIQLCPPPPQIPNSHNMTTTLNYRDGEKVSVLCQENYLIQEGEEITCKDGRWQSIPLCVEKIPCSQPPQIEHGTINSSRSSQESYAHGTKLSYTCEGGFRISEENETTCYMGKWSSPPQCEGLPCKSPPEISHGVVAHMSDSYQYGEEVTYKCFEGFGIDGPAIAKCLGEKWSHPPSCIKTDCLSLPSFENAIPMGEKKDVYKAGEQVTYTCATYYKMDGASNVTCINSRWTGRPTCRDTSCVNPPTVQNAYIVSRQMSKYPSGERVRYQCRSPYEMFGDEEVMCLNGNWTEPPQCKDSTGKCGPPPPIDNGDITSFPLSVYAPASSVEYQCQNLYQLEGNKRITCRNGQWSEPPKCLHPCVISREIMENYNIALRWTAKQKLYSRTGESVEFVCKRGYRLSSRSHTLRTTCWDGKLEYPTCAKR

With “recombinant PspC (D39) (domain or fragment)”, in test [1], the Kd came to 0.0885 nM. In test [2], the Kd stood at 0.086 nM, the koff turned out to be 4.3e-05 s⁻¹ and the kon is 480000 M⁻¹ s⁻¹.
